Measurements published in patent publication US5693476.
“And” between values parts separate entries of the source, which are not always exact repeats. Identical values can stand only once.

Key:
[1] = target: GST-syntaxin 1A deletion mutant Syn 1A17 (amino acids 4-240) (Schistosoma japonicum; rat); assay: GST-syntaxin deletion mutant on glutathione beads, soluble ligand, Western blot densitometry; FIG. 4C row 5 from top, row label only in the figure (assigned by Table 1 order and paragraph 328)
[2] = target: GST-SNAP-25, immobilized on glutathione agarose beads (Schistosoma japonicum; mouse); assay: GST pull-down on glutathione agarose beads, Western blot (anti-α-SNAP), densitometry, FIG. 3
[3] = target: GST-VAMP (full cytoplasmic domain of VAMP), immobilized on glutathione agarose beads (Schistosoma japonicum; rat); assay: as above
[4] = target: GST-syntaxin 1A cytoplasmic domain fusion protein (Syn 1A11, amino acids 4-266), immobilized on glutathione agarose beads (Schistosoma japonicum; rat); assay: as above
[5] = target: GST (glutathione-S-transferase) alone, immobilized on glutathione agarose beads (Schistosoma japonicum) [GST: P08515]; assay: as above
[6] = target: GST-syntaxin 1A cytoplasmic domain fusion protein (Syn 1A11, amino acids 4-266), immobilized on glutathione agarose beads (Schistosoma japonicum; rat); assay: 20S complex assembly on GST-syntaxin beads with SNAP-25, VAMP, α-SNAP and NSF added together, ATPγS, 25° C., Western blot densitometry, FIG. 6A
[7] = target: GST-syntaxin 1A deletion mutant Syn 1A13 (amino acids 4-221) (Schistosoma japonicum; rat); assay: 20S complex assembly on GST-syntaxin beads with all four proteins together, ATPγS, 18° C. overnight MgCl2, Western blot densitometry, FIG. 6B
[8] = target: GST-syntaxin 1A cytoplasmic domain fusion protein (Syn 1A11, amino acids 4-266), immobilized on glutathione agarose beads (Schistosoma japonicum; rat); assay: GST-syntaxin deletion mutant on glutathione beads, soluble ligand, Western blot densitometry; FIG. 4C row 6 from top, row label only in the figure (assigned by Table 1 order and paragraph 328)
[9] = target: GST-syntaxin 1A cytoplasmic domain fusion protein (Syn 1A11, amino acids 4-266), immobilized on glutathione agarose beads (Schistosoma japonicum; rat); assay: 20S complex on GST-Syn 1A11 beads, ATP and MgCl2, Western blot densitometry
[10] = target: GST-syntaxin 1A deletion mutant Syn 1A4 (amino acids 8-76) (Schistosoma japonicum; rat); assay: GST-syntaxin deletion mutant on glutathione beads, soluble ligand, Western blot densitometry; FIG. 4C row 1 from top, row label only in the figure (assigned by Table 1 order and paragraph 328)
[11] = target: GST-syntaxin 1A deletion mutant Syn 1A17 (amino acids 4-240) (Schistosoma japonicum; rat); assay: 20S complex on GST-Syn 1A17 beads, ATP and Mg++, Western blot densitometry
[12] = target: GST-syntaxin 1A cytoplasmic domain fusion protein (Syn 1A11, amino acids 4-266), immobilized on glutathione agarose beads (Schistosoma japonicum; rat); assay: 20S complex on GST-Syn 1A11 beads, ATP and Mg++, Western blot densitometry

Sequence of His-tagged α-SNAP (soluble NSF attachment protein), soluble recombinant (P81125 whole entry): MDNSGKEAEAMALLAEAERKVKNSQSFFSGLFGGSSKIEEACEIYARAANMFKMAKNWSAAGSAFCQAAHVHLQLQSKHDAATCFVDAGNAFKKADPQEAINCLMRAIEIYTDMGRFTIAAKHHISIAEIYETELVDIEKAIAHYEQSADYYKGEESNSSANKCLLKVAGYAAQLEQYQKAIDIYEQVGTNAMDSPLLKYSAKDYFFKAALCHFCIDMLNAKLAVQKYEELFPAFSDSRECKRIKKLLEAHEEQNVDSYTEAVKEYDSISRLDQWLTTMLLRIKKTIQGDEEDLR

| densitometry pixel value [1] | densitometry pixel value [2] | densitometry pixel value [3] | densitometry pixel value [4] | densitometry pixel value [5] | densitometry pixel value [6] | densitometry pixel value [7] | densitometry pixel value [8] | percent dissociated from syntaxin following ATP hydrolysis by NSF [9] | densitometry pixel value [10] | percent dissociated in the presence of ATP and Mg++ [11] | percent remaining associated with the GST-syntaxin beads [12] | Substance |
| --- | --- | --- | --- | --- | --- | --- | --- | --- | --- | --- | --- | --- |
| 1660 pixel value | 33 pixel value | 8 pixel value | 1830 pixel value | 0 pixel value | 1490 pixel value | 0 pixel value | 1670 pixel value | 70% and 90% | 0 pixel value | 25% |  | His-tagged α-SNAP (soluble NSF attachment protein), soluble recombinant (from UniProt P81125) |
| 623 pixel value |  |  |  |  | 839 pixel value | 1340 pixel value | 797 pixel value |  | 19 pixel value | 0% | 90% | SNAP-25 (synaptosomal-associated protein of 25 kDa), soluble recombinant |
| 0 pixel value |  |  |  |  | 528 pixel value | 1310 pixel value | 286 pixel value | 80% and 90% | 0 pixel value | 0% |  | VAMP (vesicle-associated membrane protein; VAMP 2), soluble recombinant |
